Target: HIV-1 integrase (Human immunodeficiency virus 1 (BH10)) (UniProt P03366)
Assay: FP filter
[1] = 50 mM NaCl, stated about same Kd as 30N RNA
[2] = nitrocellulose filter, 250 mM NaCl, printed as 20x10^-6, data not shown

| Substance | Kd [1] [nM] | Kd [2] [nM] |
| --- | --- | --- |
| U5 21-mer ds | 25 | > 20000 |
| U5 21-mer ss | 25 | > 20000 |
